Experimental data published in US8557762 (CHILDREN S HOSPITAL OF PHILADELPHIA, dated 2013).
Several values for one entry are separate records, joined by “and”; a condition that tells them apart may be missing. Equal values may be shown once. Read-outs that look alike come from different tables or passages of the source.

Key:
[1] = molecular target: T1, pt-rFVa (pt-rFV processed by thrombin) (Pseudonaja textilis, UniProt Q7SZN0 31-772; Q7SZN0 819-1460); test: fluorescent binding measurements, membrane-bound human FXa (data not shown)
T1 sequence (heavy): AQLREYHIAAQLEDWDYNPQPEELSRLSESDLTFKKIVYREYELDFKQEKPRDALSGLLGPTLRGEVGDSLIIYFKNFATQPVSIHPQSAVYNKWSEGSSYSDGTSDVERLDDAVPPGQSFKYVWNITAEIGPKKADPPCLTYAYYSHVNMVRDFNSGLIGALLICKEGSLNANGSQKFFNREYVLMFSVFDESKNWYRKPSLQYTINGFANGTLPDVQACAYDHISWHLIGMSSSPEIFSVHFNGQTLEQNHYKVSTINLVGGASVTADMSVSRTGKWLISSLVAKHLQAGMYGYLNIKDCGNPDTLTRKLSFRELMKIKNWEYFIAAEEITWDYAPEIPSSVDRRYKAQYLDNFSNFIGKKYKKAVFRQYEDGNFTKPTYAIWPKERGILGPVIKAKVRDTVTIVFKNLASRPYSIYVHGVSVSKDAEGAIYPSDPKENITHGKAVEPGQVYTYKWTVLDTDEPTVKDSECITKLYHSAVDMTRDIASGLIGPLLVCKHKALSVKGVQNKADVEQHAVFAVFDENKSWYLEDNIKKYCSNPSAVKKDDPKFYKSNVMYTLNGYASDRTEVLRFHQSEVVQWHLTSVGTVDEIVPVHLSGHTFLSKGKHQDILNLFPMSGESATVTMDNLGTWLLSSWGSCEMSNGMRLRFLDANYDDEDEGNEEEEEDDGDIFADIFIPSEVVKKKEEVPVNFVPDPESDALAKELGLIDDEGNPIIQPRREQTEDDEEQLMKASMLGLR
T1 sequence (light): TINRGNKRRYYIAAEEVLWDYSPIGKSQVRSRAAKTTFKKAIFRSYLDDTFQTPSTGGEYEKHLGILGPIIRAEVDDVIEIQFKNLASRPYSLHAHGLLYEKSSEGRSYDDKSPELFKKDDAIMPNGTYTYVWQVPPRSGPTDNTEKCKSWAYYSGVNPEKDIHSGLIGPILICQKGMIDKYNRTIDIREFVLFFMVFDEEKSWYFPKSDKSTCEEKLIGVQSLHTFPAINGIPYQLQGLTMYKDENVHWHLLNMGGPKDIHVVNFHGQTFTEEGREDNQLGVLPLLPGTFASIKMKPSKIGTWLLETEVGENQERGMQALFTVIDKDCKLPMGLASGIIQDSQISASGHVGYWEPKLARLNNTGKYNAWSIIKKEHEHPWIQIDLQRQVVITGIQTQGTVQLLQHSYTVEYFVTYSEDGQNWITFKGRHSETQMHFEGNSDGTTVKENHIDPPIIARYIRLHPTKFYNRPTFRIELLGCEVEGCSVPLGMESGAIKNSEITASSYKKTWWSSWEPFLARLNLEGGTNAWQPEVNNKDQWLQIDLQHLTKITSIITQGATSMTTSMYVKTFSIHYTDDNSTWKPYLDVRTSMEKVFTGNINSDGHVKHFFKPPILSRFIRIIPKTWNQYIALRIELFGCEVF

[2] = molecular target: T2, recombinant venom-derived factor V from Pseudonaja textilis (pt-rFV) (Pseudonaja textilis, UniProt Q7SZN0 31-1460); test: as above
T2 construct: mature
T2 sequence: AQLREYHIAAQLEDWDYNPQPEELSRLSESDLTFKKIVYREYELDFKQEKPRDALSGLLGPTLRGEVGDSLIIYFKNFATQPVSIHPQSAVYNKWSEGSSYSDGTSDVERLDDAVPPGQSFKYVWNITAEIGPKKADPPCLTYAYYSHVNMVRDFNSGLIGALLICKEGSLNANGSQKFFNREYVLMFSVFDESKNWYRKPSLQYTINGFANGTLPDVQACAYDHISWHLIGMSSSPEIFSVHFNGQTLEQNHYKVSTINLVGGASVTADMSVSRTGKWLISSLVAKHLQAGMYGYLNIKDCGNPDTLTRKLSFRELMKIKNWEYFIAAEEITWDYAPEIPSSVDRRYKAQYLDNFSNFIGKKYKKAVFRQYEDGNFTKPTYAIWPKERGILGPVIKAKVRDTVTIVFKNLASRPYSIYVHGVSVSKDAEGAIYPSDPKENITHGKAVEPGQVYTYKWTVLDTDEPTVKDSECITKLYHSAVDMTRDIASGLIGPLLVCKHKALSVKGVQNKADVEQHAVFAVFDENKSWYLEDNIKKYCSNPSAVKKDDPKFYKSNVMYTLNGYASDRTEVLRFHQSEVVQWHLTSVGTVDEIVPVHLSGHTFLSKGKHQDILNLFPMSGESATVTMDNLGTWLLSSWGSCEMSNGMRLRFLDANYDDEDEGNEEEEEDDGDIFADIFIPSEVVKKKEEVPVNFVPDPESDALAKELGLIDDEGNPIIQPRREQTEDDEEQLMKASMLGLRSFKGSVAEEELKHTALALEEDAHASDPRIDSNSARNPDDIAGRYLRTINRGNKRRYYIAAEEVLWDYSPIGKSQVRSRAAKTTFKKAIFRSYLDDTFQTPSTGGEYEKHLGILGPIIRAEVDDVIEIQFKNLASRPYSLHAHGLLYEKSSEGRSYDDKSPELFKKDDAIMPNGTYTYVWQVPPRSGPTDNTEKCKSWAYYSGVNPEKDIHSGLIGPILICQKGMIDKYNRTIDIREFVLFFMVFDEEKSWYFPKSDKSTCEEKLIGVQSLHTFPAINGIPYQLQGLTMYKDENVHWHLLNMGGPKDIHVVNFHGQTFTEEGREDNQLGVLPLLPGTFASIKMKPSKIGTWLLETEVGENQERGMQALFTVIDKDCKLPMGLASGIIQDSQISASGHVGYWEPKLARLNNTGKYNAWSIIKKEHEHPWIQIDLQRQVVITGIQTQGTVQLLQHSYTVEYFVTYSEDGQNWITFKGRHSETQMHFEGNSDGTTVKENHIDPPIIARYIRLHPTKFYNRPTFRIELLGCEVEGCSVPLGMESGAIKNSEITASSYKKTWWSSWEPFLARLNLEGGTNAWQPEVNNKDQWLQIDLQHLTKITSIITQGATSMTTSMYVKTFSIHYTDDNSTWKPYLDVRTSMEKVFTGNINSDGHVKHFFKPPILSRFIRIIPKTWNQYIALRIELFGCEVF

[3] = molecular target: hFV-810 (constitutively active partial B-domainless form of human FV) (human, UniProt P12259 29-2224)
hFV-810 (constitutively active partial B-domainless form of human FV), sequence (P12259 other isoform, or with tags, fused parts or gaps limits assumed): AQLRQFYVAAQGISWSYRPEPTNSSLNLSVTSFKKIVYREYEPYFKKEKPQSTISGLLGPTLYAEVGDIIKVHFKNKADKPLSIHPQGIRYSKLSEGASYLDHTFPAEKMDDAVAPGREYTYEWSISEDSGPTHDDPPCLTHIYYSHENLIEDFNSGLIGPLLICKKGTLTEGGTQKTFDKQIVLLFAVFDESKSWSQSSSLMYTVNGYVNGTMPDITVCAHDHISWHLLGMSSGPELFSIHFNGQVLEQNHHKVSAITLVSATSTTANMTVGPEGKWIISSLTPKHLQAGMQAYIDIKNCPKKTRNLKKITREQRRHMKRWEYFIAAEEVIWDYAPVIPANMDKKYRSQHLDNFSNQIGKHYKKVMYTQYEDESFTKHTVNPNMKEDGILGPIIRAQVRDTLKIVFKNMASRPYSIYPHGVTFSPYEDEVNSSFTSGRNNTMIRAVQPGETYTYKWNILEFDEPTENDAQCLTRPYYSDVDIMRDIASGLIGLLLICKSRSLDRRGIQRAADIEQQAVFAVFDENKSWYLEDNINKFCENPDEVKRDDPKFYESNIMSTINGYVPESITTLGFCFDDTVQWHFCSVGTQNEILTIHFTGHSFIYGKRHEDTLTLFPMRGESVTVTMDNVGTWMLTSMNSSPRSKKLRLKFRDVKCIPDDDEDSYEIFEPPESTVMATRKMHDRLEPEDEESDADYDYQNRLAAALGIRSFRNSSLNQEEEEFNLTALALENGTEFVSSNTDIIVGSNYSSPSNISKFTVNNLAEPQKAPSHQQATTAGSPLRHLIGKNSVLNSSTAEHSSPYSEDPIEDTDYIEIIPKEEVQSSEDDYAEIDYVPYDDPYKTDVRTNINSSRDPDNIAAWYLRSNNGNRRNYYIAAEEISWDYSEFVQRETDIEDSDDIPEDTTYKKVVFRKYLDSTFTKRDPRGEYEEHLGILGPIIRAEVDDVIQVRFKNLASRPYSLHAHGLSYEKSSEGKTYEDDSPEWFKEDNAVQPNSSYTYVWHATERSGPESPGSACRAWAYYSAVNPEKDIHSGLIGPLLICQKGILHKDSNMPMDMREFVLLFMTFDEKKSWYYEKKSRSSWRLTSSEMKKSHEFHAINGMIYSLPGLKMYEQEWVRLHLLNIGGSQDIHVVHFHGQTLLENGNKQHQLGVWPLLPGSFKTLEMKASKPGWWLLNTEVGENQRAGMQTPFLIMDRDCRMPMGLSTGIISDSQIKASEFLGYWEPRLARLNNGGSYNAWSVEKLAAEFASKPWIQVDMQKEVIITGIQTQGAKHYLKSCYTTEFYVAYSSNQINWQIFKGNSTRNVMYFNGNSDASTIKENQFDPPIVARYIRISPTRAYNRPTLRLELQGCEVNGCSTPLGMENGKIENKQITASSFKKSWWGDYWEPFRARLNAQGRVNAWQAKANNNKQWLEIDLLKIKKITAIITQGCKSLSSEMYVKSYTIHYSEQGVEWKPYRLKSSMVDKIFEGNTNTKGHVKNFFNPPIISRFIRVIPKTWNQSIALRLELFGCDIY

[4] = molecular target: T1, pt-rFVa (pt-rFV processed by thrombin)
[5] = molecular target: T2, recombinant venom-derived factor V from …

B1: human factor Xa (membrane-bound human FXa) (enzyme)
chain 1: ANSFLEEMKKGHLERECMEETCSYEEAREVFEDSDKTNEFWNKYKDGDQCETSPCQNQGKCKDGLGEYTCTCLEGFEGKNCELFTRKLCSLDNGDCDQFCHEEQNSVVCSCARGYTLADNGKACIPTGPYPCGKQTLER
chain 2: IVGGQECKDGECPWQALLINEENEGFCGGTILSEFYILTAAHCLYQAKRFKVRVGDRNTEQEEGGEAVHEVEVVIKHNRFTKETYDFDIAVLRLKTPITFRMNVAPACLPERDWAESTLMTQKTGIVSGFGRTHEKGRQSTRLKMLEVPYVDRNSCKLSSSFIITQNMFCAGYDTKQEDACQGDSGGPHVTRFKDTYFVTGIVSWGEGCARKGKYGIYTKVTAFLKWIDRSMKTRGLPKAKSHAPEVITSSPLK
notes: also called rFXa; human rFXa
Kd [1]: > 400 nM
Kd [2]: > 400 nM

B2: purified enzymatic subunit of pseutarin C (pt-FXa) (enzyme)
chain 1: ANSLVEEFKSGNIERECIEERCSKEEAREVFEDDEKTETFWNVYVDGDQCSSNPCHYRGICKDGIGSYTCTCLSGYEGKNCERVLYKSCRVDNGNCWHFCKSVQNDIQCSCAEGYLLGEDGHSCVAGGNFSCGRNIKTRNK
chain 2: IVNGMDCKLGECPWQAALVDDKKGVFCGGTILSPIYVLTAAHCINETETISVVVGEIDRSRAETGPLLSVDKVYVHKKFVPPKKSQEFYEKFDLVSYDYDIAIIQMKTPIQFSENVVPACLPTADFANQVLMKQDFGIVSGFGGIFERGPNSKTLKVLKVPYVDRHTCMLSSNFPITPTMFCAGYDTLPQDACQGDSGGPHITAYRDTHFITGIVSWGEGCARKGRYGIYTKLSKFIPWIKRIMRQKLPSTESSTGRL
Kd [3]: 3.76 nM
Kd [4]: 3.84 nM and 7.54 nM
Kd [5]: 3.06 nM and 8.08 nM
